Measured values taken from patent US20090280128A1 (SBI BIOTECH, published 2009).

B1: anti-ILT7 antibody #11 (mouse anti-human ILT7 monoclonal antibody produced by hybridoma #11, FERM BP-10704) (antibody, V domains shown)
VH: DVQLQESGPGLVKPSQSLSLTCTVTGYSITSDYAWNWIRQFPGNKLEWMGYISYSGSTSYNPSLKSRISITRDTSKNQFFLQLNSVTTEDTATYYCARSPPYYAMDYWGQGTSVTVSS
VL: DIVMTQSHKFMSTSVGDRVSITCKASQDVGTAVAWYQQKPGQSPKLLIYWASTRHTGVPDRFTGSGSGTDFTLTISNVQSEDLADYFCQQYSSYPLTFGAGTKLELK
notes: Mouse hybridoma antibody as tested; also called ILT7#11; anti-ILT7 antibody 411
B2: mouse anti-human ILT7 antibody #37 (monoclonal antibody produced by hybridoma #37) (antibody, V domains shown)
VH: DVQLQESGPGLVKPSQSLSLTCTVTGYSITSDYAWNWIRQFPGNKLEWMGYISYSGSTSYNPSLKSRISITRDTSKNQFFLQLNSVTTEDTATYYCARALPLPWFAYWGQGTLVTVSA
VL: DIVMTQSHKFMSTSVGDRVSITCKASQDVGTAVAWYQQKPGQSPKLLIYWASTRHTGVPDRFTGSGSGTDFTLTISNVQSEDLADYFCQQYSSYPYTFGGGTKLEIK
notes: Mouse hybridoma antibody; also called ILT7#37; ILT7437
B3: anti-ILT7 antibody #17 (mouse anti-human ILT7 monoclonal antibody produced by hybridoma #17, FERM BP-10705) (antibody, V domains shown)
VH: QVQLKQSGAELVRPGASVKLSCKTSGYIFTSYWIHWVKQRSGQGLEWIARIYPGTGSTYYNEKFKGKATLTADKSSSTAYMQLSSLKSEDSAVYFCARYPTYDWYFDVWGAGTTVTVSS
VL: DIVLTQSPATLSVTPGDRVSLSCRASQSISNYLHWYQQKSHESPRLLIKYASQSISGIPSRFSGSGSGTDFTLSINSVETEDFGMYFCQQSNSWPLTFGAGTKLELK
notes: Mouse hybridoma antibody as tested; also called ILT7#17

How the values were obtained:
[1] = target: T1, C-FLAG ILT1 (human ILT1 with a FLAG tag at the C terminus, on 293T cells) (human, UniProt Q8N149 24-483); experiment: flow cytometry on 293T cells co-transfected with C-FLAG ILT1, ILT2, ILT3 and Myc-FcRγ
T1 construct: Cloned from a human tonsil cDNA library; also called pME18X-C-FLAGILT1; pME18X-C-FLAG ILT1
T1 sequence (Q8N149 other isoform, or with tags, fused parts or gaps limits assumed): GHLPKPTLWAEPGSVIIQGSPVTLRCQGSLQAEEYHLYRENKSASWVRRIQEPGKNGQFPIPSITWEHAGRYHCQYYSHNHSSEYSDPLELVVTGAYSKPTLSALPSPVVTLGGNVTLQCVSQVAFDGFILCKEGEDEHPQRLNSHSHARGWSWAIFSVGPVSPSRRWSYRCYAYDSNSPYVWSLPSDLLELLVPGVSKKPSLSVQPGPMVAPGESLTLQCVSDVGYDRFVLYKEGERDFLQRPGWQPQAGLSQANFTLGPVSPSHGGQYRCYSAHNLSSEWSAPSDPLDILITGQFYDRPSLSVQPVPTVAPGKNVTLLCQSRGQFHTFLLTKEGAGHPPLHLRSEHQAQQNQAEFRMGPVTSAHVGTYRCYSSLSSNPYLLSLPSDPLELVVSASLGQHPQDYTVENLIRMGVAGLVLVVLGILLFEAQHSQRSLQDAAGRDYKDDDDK

[2] = target: ILT3 (on 293T cells, from pcDNA4.1-ILT3) (Homo sapiens (Human), UniProt Q8NHJ6 22-448); experiment: as above
Sequence of ILT3 (on 293T cells, from pcDNA4.1-ILT3) (Q8NHJ6 22-448 D223G/Q414R limits assumed): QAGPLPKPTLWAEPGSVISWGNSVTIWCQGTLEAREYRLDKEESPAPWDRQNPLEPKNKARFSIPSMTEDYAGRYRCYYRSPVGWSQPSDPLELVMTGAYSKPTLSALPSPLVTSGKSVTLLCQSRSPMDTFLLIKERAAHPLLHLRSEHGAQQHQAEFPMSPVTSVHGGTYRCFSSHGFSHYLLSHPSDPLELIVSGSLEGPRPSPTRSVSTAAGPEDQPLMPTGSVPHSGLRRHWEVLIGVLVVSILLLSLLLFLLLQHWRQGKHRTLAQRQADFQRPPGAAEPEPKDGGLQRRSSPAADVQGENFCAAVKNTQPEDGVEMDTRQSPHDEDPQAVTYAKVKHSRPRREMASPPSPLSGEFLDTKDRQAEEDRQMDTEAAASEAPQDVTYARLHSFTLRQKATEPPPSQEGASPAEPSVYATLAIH

[3] = target: ILT2 (on 293T cells, from pcDNA4.1-ILT2) (Homo sapiens (Human), UniProt Q8NHL6 24-650); experiment: as above
Sequence of ILT2 (on 293T cells, from pcDNA4.1-ILT2) (Q8NHL6 other isoform, or with tags, fused parts or gaps limits assumed): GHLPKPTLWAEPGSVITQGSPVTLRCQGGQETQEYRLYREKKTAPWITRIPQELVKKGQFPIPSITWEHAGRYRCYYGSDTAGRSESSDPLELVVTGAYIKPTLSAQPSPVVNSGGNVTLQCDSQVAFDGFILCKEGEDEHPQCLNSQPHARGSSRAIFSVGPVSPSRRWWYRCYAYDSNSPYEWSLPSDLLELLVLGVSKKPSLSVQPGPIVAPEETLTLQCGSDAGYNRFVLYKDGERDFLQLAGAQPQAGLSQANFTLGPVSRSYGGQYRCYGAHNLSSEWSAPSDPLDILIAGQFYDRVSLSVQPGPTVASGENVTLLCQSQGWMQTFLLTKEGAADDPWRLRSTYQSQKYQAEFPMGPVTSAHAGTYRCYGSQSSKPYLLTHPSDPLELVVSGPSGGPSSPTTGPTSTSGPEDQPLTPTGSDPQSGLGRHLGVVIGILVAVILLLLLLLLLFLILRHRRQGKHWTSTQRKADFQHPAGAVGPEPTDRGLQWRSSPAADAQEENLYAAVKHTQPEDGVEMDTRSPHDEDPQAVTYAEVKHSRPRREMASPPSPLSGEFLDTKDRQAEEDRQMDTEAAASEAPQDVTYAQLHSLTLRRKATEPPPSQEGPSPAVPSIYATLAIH

[4] = target: T2, human ILT7 expressed on human IPCs (interferon producing cells, BDCA-2 positive cells of peripheral blood … (human, UniProt P59901 17-499)); experiment: flow cytometry on human lymphocytes, with anti-CD123 antibody
T2 construct: Natural protein on primary human cells; GenBank NM-012276 is printed for the cDNA; also called immunoglobulin-like transcript-7; ILT7 molecules expressed on human IPCs
T2 sequence (P59901 other isoform, or with tags, fused parts or gaps): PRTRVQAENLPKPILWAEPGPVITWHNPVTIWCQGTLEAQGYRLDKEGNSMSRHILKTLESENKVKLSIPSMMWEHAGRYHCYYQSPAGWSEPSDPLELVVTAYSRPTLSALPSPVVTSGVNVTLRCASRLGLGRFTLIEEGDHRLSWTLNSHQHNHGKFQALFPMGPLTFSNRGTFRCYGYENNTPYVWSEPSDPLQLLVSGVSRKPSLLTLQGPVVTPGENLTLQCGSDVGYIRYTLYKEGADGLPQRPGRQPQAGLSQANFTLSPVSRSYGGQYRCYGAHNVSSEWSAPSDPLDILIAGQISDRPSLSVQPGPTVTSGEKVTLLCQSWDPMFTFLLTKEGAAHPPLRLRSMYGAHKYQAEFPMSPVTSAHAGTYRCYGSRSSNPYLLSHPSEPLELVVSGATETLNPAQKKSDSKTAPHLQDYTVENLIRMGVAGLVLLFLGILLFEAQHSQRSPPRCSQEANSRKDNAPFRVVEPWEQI

[5] = target: T3, C-FLAG ILT7 (human ILT7 with FLAG tag at the C terminus, co-expressed with Myc-FcRγ) (human, UniProt P59901 17-499); experiment: flow cytometry of hybridoma supernatant on 293T cells transfected with C-FLAG ILT7 and Myc-FcRγ
T3 construct: also called pME18X-C-FLAG ILT7; pcDNA3.1-C-FLAG ILT7
T3 sequence (P59901 other isoform, or with tags, fused parts or gaps): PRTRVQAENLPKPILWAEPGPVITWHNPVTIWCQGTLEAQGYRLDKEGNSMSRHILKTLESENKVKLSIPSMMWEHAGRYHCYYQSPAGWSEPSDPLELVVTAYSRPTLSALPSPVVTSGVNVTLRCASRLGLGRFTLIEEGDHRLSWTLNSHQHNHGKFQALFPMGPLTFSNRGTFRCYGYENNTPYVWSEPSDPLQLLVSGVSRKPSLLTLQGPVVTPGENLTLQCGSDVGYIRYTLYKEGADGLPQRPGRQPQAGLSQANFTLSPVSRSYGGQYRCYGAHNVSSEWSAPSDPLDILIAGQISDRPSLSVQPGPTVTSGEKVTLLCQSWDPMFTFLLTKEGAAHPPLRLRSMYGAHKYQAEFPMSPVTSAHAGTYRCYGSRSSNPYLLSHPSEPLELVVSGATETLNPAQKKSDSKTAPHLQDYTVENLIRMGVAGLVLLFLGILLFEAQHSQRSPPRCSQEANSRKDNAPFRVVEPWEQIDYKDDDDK

[6] = target: T4, N-FLAG ILT7 (human ILT7 with FLAG tag attached to the N terminus, co-expressed with Myc-FcRγ on 293T cells) (human, UniProt P59901 17-499); experiment: flow cytometry on 293T cells co-expressing N-FLAG ILT7 and Myc-FcRγ
T4 construct: also called pME18X-N-FLAG ILT7; ILT7 molecules with a FLAG tag
T4 sequence (P59901 other isoform, or with tags, fused parts or gaps): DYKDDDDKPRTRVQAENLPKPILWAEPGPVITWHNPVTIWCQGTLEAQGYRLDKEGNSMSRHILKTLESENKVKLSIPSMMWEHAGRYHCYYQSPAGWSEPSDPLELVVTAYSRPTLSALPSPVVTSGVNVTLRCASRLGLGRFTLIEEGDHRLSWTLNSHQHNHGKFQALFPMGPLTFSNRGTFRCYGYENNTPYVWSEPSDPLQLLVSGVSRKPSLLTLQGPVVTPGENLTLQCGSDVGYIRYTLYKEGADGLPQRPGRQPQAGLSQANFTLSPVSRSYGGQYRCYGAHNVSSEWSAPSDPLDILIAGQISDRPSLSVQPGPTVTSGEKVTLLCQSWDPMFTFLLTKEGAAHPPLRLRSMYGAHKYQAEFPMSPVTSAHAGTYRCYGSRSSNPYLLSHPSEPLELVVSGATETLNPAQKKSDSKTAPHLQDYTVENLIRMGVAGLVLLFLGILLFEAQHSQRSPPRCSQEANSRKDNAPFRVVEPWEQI

[7] = target: T3, C-FLAG ILT7 (human ILT7 with FLAG tag …); experiment: cell-based or functional assay
[8] = target: T2, human ILT7 expressed on human IPCs …; experiment: flow cytometry as in B of Example 2 (human peripheral blood lymphocytes, BDCA-2 positive cells)
[9] = target: T2, human ILT7 expressed on human IPCs …; experiment: flow cytometry, multiple staining of human peripheral blood lymphocytes (Lineage-1, CD123, BDCA-2)

Binder | binding result [1] | binding result [2] | binding result [3] | binding result [4] | binding result [5] | binding result [6] | APC fluorescence intensity ratio (%), 37 °C against 4 °C (internalization on ILT7-CHO cells) [7] [%] | FITC fluorescence intensity ratio (%), 37 °C against 4 °C (internalization on ILT7-CHO cells) [7] [%] | binding result [8] | binding result [9]
B1 | no binding | no binding | no binding | binds | binds | binds | – | – | – | –
B2 | – | – | – | – | – | – | 98.2 | 55.9 | binds | –
B3 | no binding | no binding | no binding | – | – | – | 95.4 | 44.5 | – | binds
